Test system: yeast strain S288Cα
Assay: Heterologous expression of E. plantagineum Δ6-desaturase gene in yeast, conversion of fed fatty acids
Assay type: cell-based
Settings: 20° C., 2-3 days
Experimental: Expression experiments in yeast were carried out to confirm that the cloned E. platangineum gene (cDNA sequence provided as SEQ ID NO:25) encoded a Δ6-desaturase enzyme. The gene fragment was inserted as an XbaI-SacI fragment into the […] sites of the yeast expression vector pSOS (Stratagene) containing the constitutive ADH1 promoter, resulting in plasmid pXZP271. This was transformed into yeast strain S288Cα by a heat shock method and transformant colonies selected by plating on minimal media plates. For the analysis of enzyme activity, 2 mL yeast clonal cultures were grown to an O.D.600 of 1.0 in yeast minimal medium in the presence of 0.1% NP-40 at 30° C. with shaking. Precursor free-fatty acids, either linoleic or linolenic acid as 25 mM stocks in ethanol, were added so that the final concentration of fatty acid was 0.5 mM. The cultures were transferred to 20° C. and grown for 2-3 days with shaking. Yeast cells were harvested by repeated centrifugation and washing first with 0.1% NP-40, then 0.05% NP-40 and finally with water. Fatty acids were extracted and analyzed. The peak identities of fatty acids were confirmed by GC-MS.

B1: EplD6Des: Δ6 desaturase from Echium plantagineum, polypeptide of 438 amino acid residues, expressed in yeast from plasmid pXZP271 (protein, listed as Echium plantagineum)
chain: MANAIKKYITAEELKKHDKAGDLWISIQGKIYDVSDWLKDHPGGNFPLLSLAGQEVTDAFVAFHSGTTWKLLEKFFTGYYLKDYSVSEVSKDYRKLVFEFNKMGLFDKKGHIVLVTVLFIAMLFGMSVYGVLFCEGVLVHLLAGGLMGFVWIQSGWIGHDAGHYIVMPDARLNKLMGIVAANCLSGISIGWWKWNHNAHHIACNSLDYDPDLQYIPFLVVSSKLFSSLTSHFYEKKLTFDSLSRFFVSHQHWTFYPVMCMARVNMFVQSLIMLLTKRNVFYRSQELLGLVVFWIWYPLLVSCLPNWGERVMFVVASLSVTGMQQVQFSLNHFSSSVYVGQPKGNDWFEKQTCGTLDISCPSWMDWFHGGLQFQVEHHLFPKLPRCHLRKISPFVMELCKKHNLSYNCASFSEANNMTLRTLRDTALQARDLTKPLPKNLVWEALNTHG
LA converted to GLA (0.5 mM linoleic acid fed): Around 2.9% | ALA converted to SDA (0.5 mM linolenic acid fed): ~2.3%
